Assay results from PMC10504544, “1-deoxy-D-xylulose-5-phosphate synthase from Pseudomonas aeruginosa and Klebsiella pneumoniae reveals conformational changes upon cofactor binding” (The Journal of Biological Chemistry, 2023).

Assays:
O=CC(O)COP(=O)(O)O = test: steady-state kinetics (Km), IspC-coupled assay; assay type: biochemical, Klebsiella pneumoniae; details: ThDP, Mg2+
CC(=O)C(=O)O = test: steady-state kinetics (Km), IspC-coupled assay; assay type: biochemical, Klebsiella pneumoniae; details: ThDP, Mg2+
[1] = tested on: Cc1ncc(C[n+]2csc(CCO[P@](=O)(O)OP(=O)(O)O)c2C)c(N)n1; test: steady-state kinetics (Km); assay type: biochemical, Klebsiella pneumoniae; details: Mg2+ active site; diphosphate in asparagine-rich region with H bond from Ser52; varied: cofactor
[2] = tested on: Cc1ncc(C[n+]2csc(CCO[P@](=O)(O)OP(=O)(O)O)c2C)c(N)n1; test: purified protein; assay type: biochemical, Pseudomonas aeruginosa; details: varied: cofactor

| Substance | Km (O=CC(O)COP(=O)(O)O) | Km (CC(=O)C(=O)O) | Km [1] | Km [2] |
| --- | --- | --- | --- | --- |
| 1-deoxy-D-xylulose-5-phosphate synthase (kpDXPS) (Klebsiella pneumoniae subsp. pneumoniae MGH 78578; DEL197-240/INS196GGGGGG) | 170 ± 43 µM | 113 ± 34 µM | 0.11 ± 0.017 µM | – |
| 1-deoxy-D-xylulose-5-phosphate synthase (paDXPS) (Pseudomonas aeruginosa LESB58; DEL206-245/INS205GGGGGG) | – | – | – | 0.0965 ± 0.014 µM |
